Experiment [1] deals with T1, human myelin-associated glycoprotein (MAG) (human, UniProt P20916 20-626).
T1 construct: Expressed on transfected HEK293T cells from the human membrane gene library; also called Siglec 4; human MAG
T1 sequence: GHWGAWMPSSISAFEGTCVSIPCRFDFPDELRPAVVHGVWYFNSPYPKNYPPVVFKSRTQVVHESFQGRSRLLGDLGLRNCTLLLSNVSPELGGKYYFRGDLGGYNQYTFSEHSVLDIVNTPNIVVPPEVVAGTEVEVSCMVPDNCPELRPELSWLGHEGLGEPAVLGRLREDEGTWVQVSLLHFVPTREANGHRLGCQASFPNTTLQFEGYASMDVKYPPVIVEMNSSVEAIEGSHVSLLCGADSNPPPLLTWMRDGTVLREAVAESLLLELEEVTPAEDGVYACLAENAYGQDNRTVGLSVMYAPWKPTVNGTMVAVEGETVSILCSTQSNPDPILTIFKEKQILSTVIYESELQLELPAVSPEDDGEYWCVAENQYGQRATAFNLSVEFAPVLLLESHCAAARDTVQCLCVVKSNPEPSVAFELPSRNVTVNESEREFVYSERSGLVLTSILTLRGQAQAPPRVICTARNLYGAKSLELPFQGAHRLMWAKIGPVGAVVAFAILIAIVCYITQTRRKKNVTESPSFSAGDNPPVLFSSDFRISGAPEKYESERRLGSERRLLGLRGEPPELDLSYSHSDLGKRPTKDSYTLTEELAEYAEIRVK
Put plainly: genome-scale human receptor array; transfected HEK293T cells, anti-Fc FMAT blue secondary antibody. The text has this:
(§1) To identify the ligand for Siglec 15, a Siglec 15-Fc fusion protein was generated by fusing the extracellular domain of each molecule with a mouse or human Fc tag (Dong H, et al., Nat Med. 1999; 5(12): 1365-9) and screened in the newly established genome scale human receptor array (Yao, S et al., Immunity 2011, 34(5):729-40). Briefly, the complete human membrane gene library containing over 6,200 genes was collected, maintained, and diluted by OPTI-MEM media and placed individually into four 1,536-well plates at 40 ng/well, through a robotic system. Lipofectamine 2000 was added to each well and mixed with plasmids for 30 minutes. Two thousand HEK293T cells were added subsequently to each well to perform transient transfection. Eight hours after transfection, 10 ng of human Siglec 15-Fc and anti-Fc FMAT blue secondary antibody were added to each well. The plates were read 24 hours after transfection using the Applied Biosystems 8200 cellular detection system and analyzed using the CDS 8200 software. Human Fc Receptor genes served as internal positive controls for the assay.

The target in experiment [2] is T2, human leucine rich repeat containing 4C (LRRC4C) (human, UniProt Q9HCJ2 45-640).
T2 construct: also called human LRRC4; NGL1
T2 sequence: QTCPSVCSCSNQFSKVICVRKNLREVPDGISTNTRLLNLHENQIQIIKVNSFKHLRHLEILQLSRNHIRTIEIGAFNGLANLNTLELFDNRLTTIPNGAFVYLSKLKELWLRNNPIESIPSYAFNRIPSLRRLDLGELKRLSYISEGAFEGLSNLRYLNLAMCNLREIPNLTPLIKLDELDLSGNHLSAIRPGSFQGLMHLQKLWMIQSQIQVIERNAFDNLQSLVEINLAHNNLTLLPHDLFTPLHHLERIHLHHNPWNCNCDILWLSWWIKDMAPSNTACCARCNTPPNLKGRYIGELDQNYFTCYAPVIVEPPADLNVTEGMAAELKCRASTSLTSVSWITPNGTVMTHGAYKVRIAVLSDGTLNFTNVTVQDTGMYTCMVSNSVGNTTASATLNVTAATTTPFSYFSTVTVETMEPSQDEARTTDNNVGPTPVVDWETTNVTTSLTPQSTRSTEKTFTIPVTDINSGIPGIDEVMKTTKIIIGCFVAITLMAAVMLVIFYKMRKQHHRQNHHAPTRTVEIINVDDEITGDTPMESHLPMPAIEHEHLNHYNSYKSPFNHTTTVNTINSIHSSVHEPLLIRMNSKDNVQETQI
Described as above.
Description: as §1

The target of the next experiment is T3, MAG (species not stated) (Homo sapiens (Human), UniProt P20916 20-626, limits assumed).
T3 construct: also called myelin-associated glycoprotein
T3 sequence: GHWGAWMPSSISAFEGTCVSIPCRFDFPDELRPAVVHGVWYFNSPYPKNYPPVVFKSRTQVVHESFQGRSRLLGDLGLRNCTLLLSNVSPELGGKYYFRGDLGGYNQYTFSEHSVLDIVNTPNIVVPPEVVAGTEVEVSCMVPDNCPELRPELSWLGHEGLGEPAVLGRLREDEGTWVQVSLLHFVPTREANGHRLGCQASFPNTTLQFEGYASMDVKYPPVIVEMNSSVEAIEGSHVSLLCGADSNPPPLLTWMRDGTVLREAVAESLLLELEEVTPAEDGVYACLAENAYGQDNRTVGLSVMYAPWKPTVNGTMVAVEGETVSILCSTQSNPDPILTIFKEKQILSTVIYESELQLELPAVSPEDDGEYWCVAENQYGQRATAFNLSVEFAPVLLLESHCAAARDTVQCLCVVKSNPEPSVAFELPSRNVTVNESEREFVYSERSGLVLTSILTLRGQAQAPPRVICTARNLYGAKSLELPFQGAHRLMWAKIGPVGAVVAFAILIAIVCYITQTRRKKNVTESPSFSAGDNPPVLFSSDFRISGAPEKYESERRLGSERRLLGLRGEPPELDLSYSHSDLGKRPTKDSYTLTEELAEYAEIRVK
The experiment is described as follows: binding of Siglec 15 point mutant, FIG. 7.

In experiment [3] the target is T4, LRRC4C (species not stated) (Homo sapiens (Human), UniProt Q9HCJ2 45-640, limits assumed).
T4 construct: also called leucine rich repeat containing 4C
T4 sequence: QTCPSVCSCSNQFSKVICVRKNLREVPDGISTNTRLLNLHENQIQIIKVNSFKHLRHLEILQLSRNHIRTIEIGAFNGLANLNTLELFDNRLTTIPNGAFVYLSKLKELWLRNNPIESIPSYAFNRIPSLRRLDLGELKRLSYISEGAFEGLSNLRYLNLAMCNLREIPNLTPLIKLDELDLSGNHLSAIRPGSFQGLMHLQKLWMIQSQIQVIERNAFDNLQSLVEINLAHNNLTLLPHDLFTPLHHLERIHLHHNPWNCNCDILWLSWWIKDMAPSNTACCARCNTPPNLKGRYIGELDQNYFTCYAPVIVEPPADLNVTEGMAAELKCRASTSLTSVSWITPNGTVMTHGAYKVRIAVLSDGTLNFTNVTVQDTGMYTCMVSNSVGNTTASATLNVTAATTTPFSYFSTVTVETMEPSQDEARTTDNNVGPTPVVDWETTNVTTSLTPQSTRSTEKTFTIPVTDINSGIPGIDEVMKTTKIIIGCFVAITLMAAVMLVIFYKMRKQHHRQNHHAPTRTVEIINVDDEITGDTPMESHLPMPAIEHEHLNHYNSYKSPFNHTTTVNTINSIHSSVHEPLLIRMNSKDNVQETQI
Put plainly: binding of Siglec 15 point mutant, FIG. 7.

B1: human Siglec 15-Fc fusion protein (Fc fusion)
chain: FVRTKIDTTENLLNTEVHSSPAQRWSMQVPPEVSAEAGDAAVLPCTFTHPHRHYDGPLTAIWRAGEPYAGPQVFRCAAARGSELCQTALSLHGRFRLLGNPRRNDLSLRVERLALADDRRYFCRVEFAGDVHDRYESRHGVRLHVTAAPRIVNISVLPSPAHAFRALCTAEGEPPPALAWSGPALGNSLAAVRSPREGHGHLVTAELPALTHDGRYTCTAANSLGRSEASVYLFRFHGASGAST
notes: not shown: mouse or human Fc tag
Turning to B1, the binding result in experiment [1] and in experiment [2] was “binds” in each case.

B2: Siglec 15 R143A mutant (other)
chain: FVRTKIDTTENLLNTEVHSSPAQRWSMQVPPEVSAEAGDAAVLPCTFTHPHRHYDGPLTAIWRAGEPYAGPQVFRCAAARGSELCQTALSLHGRFRLLGNPRRNDLSLRVERLALADDRRYFCAVEFAGDVHDRYESRHGVRLHVTAAPRIVNISVLPSPAHAFRALCTAEGEPPPALAWSGPALGNSLAAVRSPREGHGHLVTAELPALTHDGRYTCTAANSLGRSEASVYLFRFHGASGAST
notes: also called R143A mutation
On to B2, for which the binding result (in the experiment with MAG (species not stated); in experiment [3]) was “no binding” each time.

(Values after patent US20180318419A1 (YALE UNIVERSITY, published 2018).)
